Data taken from publication PMC5005036, “PDZD7-MYO7A complex identified in enriched stereocilia membranes” (eLife, 2016).

Molecular target: T1, GFP-MYO7A (mouse) (mouse, UniProt P97479 1-2215)
T1 construct: MYO7A (myosin VIIA), mouse, in pEGFP-C1; plasmid obtained from David Corey; source: HEK293, transfected, in RIPA extract; not shown: GFP, N-terminal, kept
Assay: affinity purification with mass spectrometry; HEK293 cells transfected; RIPA extract; 138-1 immunoprecipitates analysed by shotgun mass spectrometry, two technical replicates
Conditions: partners not purified

T1 sequence (P97479 whole entry): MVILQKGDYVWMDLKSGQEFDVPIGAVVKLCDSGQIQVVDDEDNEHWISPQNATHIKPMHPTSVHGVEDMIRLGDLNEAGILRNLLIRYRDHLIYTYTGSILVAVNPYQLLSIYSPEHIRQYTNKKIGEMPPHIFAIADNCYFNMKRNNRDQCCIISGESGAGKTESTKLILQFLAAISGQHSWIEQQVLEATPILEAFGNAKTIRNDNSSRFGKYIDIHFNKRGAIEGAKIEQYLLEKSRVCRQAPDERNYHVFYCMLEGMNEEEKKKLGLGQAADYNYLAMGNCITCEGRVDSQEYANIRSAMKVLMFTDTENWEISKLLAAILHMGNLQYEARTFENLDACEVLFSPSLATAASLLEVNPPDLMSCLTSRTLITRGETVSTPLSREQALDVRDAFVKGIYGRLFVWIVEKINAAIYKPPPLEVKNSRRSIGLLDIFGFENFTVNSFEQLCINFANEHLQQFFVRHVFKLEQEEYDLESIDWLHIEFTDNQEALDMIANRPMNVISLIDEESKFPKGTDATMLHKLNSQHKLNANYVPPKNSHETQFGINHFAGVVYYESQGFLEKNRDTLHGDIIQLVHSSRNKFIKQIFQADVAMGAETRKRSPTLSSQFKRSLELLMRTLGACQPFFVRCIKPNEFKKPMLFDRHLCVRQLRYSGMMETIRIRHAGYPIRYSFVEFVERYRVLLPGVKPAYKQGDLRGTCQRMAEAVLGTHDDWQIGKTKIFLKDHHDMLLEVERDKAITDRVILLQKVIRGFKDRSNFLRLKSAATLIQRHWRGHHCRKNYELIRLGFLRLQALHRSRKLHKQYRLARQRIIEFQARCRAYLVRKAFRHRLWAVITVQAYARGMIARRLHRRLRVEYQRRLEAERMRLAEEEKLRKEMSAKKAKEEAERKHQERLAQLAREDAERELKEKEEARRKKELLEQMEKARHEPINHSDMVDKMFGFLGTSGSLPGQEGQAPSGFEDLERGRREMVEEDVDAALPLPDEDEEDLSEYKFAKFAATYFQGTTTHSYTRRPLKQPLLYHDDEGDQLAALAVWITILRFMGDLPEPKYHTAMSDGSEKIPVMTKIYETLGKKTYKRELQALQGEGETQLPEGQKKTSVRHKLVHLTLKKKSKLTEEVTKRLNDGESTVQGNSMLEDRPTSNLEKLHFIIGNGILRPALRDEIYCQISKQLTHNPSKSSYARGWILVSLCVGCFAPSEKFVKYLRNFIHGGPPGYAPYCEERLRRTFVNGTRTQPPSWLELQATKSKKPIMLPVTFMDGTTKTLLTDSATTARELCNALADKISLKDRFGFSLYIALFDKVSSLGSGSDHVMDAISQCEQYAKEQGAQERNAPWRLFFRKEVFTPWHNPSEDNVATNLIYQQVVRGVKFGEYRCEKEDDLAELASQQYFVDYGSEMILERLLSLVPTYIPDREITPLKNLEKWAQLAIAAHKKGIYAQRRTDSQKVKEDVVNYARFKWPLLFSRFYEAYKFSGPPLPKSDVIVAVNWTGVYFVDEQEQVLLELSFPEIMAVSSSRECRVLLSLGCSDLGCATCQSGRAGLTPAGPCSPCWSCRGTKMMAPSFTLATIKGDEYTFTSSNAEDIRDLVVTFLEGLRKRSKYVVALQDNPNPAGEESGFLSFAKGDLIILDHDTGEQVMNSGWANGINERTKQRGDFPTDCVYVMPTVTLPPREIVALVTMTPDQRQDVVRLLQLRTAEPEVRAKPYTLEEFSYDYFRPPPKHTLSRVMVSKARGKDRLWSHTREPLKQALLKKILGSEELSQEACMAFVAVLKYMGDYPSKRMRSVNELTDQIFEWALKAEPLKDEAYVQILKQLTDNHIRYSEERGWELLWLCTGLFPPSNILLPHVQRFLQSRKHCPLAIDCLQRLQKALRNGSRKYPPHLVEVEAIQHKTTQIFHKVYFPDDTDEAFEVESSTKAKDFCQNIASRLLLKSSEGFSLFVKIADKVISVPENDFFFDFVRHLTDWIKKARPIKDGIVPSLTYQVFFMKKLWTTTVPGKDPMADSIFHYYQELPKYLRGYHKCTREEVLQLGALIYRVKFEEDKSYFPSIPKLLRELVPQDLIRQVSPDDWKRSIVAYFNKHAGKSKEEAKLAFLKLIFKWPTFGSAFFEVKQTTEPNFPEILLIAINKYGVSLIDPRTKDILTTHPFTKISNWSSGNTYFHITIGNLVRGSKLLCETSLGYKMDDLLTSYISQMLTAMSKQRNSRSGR

B1: mCherry-PDZD7 (mouse), in HEK293 (natural protein, UniProt E9Q9W7 1-1021, looked up)
chain: MARGFTVGFDPLGLGELSSGSLSSVSSRGHLGSDSGSTATRYLLRKQQRLLNGPSRGIRASSPMGRVILINSPIEANSDESDIIHAVRVEKSPSGRLGFSVRGGSEHGLGIFVSKVEEGSSAERAGLCVGDKITEVNGLSLESTTMGSAVRLLTSSSCLHMMVRRMGRVPGIKFSKEKTTWVDVVNRRLVVEKCSSTPSDRSSEDGVRRIVHLYTTSDDFCLGFNIRGGKEFGLGIYVSKVDHGGLAEENGIKVGDQVLAANGVRFDDISHSQAVEVLKGQTHIMLTIKETGRYPAYKEMVSEYCWLDRLSNGVLQQLSPASESSSSVSSYASSAPCSSGSLPSDRMDVCLGPEEPTSHGPGWGRADTAMQTEPDLDSRVETWCSVRPTVILRDTAIRSDGPSSTRHLDSALSESPKTALLLALSRPRTPITRSQSHLTLWEEKKQRKKEKSGSSGEKGALQRSKTLMNLFFKGGRQGRPAGDGHREAWTLDSRSPTKVRPRLDLEKAGSVGPVQKFVTWRLRRDRERGRALLSARSGSPSGQAPTVNEQVQAWESRRPLIQDLARRLLTDDEVLAVTRHCSRYVHEGGVEDLVRPLLAILDRPTKLLLLRDIRSVVAPTDLGRFDSMVMPVELEAFEALKSRAVGPSALRPTRQDTPPKRHLITPVPDSRGGFYLLPVNSSEDEDGEIREKLGVLKVSLGASAPHHKGIPPLQDVPVDAFSLRRGACAPPPQPPPVAPRPPRPNWLLTEPLSREDTQQNQSQTPAQSCSRSRSRSRSRSHSRGQGKSPGRRRSPSPAPIATAATANGRYHRPRKARPLLPRLLDGQVAKVGARQGPLENGRIAEEAVGNVSTGALRTITLSKMKQSLGISISGGIESKVQPMVKIEKIFPGGAAFLCGDLQAGFELVAVDGESLEQVTHQRAVDTIRRAYRNKAREPMELVVRVPGPGLLPLASDLRVVKDQSLAPDCPSALGPVDDARILTQLPPPEARQLQQSLSSALKVPQSIPKLSPILKDPHDPS
notes: PDZD7, mouse, cloned into pmCherry-C1; also called PDZD7 fused to mCherry; source: HEK293, transfected, in RIPA extract; not shown: mCherry, N-terminal, kept
With B1 the “level in the 138-1 immunoprecipitate relative to MYO7A” value was ~0.4 x.
